Experimental data published in the RNAGym collection of RNA variant scans (doi:10.7554/elife.80360).

B1: HDV Ribozyme (parent)
chain: GGCCGGCAUGGUCCCAGCCUCCUCGCUGGCGCCGGCUGGGCAACAUUCCGAGGGGACCGUCCCCUCGGUAAUGGCGAAUGGGACCCA

Variants of: B1
Test: self-cleavage, relative activity (ratio to wild type); higher = more cleavage; co-transcriptional

| Variant | self-cleavage |
| --- | --- |
| C3U C33G | 0.0282 |
| C3U C33A | 0.123 |
| C4A C62G | 0 |
| C4A C62U | 0.248 |
| C4A C62A | 0.177 |
| C4U G53U | 0.831 |
| C4U C13G | 0.0449 |
| G5A C26U | 0.511 |
| C3U G81A | 0.17 |
| C4G G55A | 0.305 |
| C4U G52C | 0.776 |
| C4U G81U | 0.0723 |
| C4U G81A | 0.136 |
| C3U C49U | 0.762 |
| C4G G76U | 0.469 |
| C3U G53C | 0.688 |
| C3U G53U | 0.779 |
| C3U G6C | 0 |
| C4U A43C | 0.578 |
| G5A G39A | 0.181 |
| G5A G39U | 0.101 |
| C4U G74U | 0.163 |
| C4U C57A | 1.08 |
| C4G G17U | 0 |

| Variant | self-cleavage |
| --- | --- |
| C4A C61U | 0.267 |
| C4A C61G | 0.193 |
| C4A C61A | 0.219 |
| G5C C58A | 0.162 |
| C4U A42U | 0.284 |
| C4U C18U | 0.323 |
| C4A C86G | 0.405 |
| G5C A56G | 0.237 |
| G5C A56U | 0.314 |
| C4G G50C | 0.237 |
| C4G G50A | 0.415 |
| C4A C26U | 0.415 |
| C4A C26A | 0.332 |
| C4U G39A | 0.136 |
| C4U G39U | 0.58 |
| C4A U37C | 0.415 |
| G5C C44G | 0 |
| C4A G25A | 0.089 |
| C4U C26G | 0.72 |
| C3U U60G | 0.591 |
| C3U U60A | 0.769 |
| C4A U23G | 0.0449 |
| C4A G50C | 0.456 |
| C4A G50A | 0.172 |

| Variant | self-cleavage |
| --- | --- |
| C3U G52C | 0.546 |
| C4U A83C | 0.111 |
| G5A G31A | 0 |
| C3U G10A | 0.513 |
| G5A A51C | 0.312 |
| C4A C24U | 0 |
| C3U G39C | 0.0804 |
| C3U G39A | 0.21 |
| C4G A45C | 0.0554 |
| C4A G31C | 0.0739 |
| C3U C44U | 0.378 |
| C3U C44G | 0.354 |
| C4A G81C | 0 |
| C4A G81U | 0.128 |
| C4G U65C | 0.18 |
| G5A U47G | 0.0875 |
| G5A G81U | 0 |
| C4U U23C | 0.571 |
| G5A U9A | 0.332 |
| C3U C36A | 0.132 |
| G5A G34C | 0.101 |
| G5A G34A | 0.0978 |
| G5C C24A | 0.0811 |
| C3U G50U | 0.728 |

| Variant | self-cleavage |
| --- | --- |
| C4U A70G | 0.541 |
| C4G G34A | 0.161 |
| C4G C75A | 0.0692 |
| C4G C75G | 0.122 |
| C4G A16C | 0.0755 |
| G5A C49G | 0.237 |
| C3U U20G | 0.125 |
| G5A C85U | 0.142 |
| C4G C7G | 0.0875 |
| C4G C7A | 0 |
| G5A C30A | 0.109 |
| G5A C30G | 0.0426 |
| C3U G34A | 0.106 |
| C3U G34C | 0.182 |
| C4U G34A | 0.772 |
| G5A G17A | 0.172 |
| C4G U46C | 0 |
| C4G U46G | 0 |
| C4U C61G | 0.394 |
| G5C C21A | 0.0831 |
| C4U G28C | 0 |
| G5A A78C | 0.106 |
| G5A A78G | 0.178 |
| C4U C48U | 0.931 |

| Variant | self-cleavage |
| --- | --- |
| C4A C44G | 0.0665 |
| C4A C44U | 0.0739 |
| G5C C63G | 0 |
| G5C C63A | 0.383 |
| C4G G29U | 0.0292 |
| C4G G29A | 0 |
| C4U G25C | 0.0773 |
| C4U A71U | 0.776 |
| C4G A56G | 0.249 |
| C4U G59A | 0.589 |
| C4U G59U | 0.973 |
| C4G G81A | 0.0382 |
| G5C C33G | 1.43 |
| G5C C33A | 0.26 |
| C4U U37C | 0.772 |
| C4A C84U | 0.172 |
| G5C C48G | 0.0755 |
| C4G G73A | 0.156 |
| G5C C14A | 0.0692 |
| G5C C14U | 0.506 |
| C3U C24U | 0.679 |
| C3U C24G | 0.0782 |
| G5A G25A | 0 |
| G5A G11A | 0.101 |

| Variant | self-cleavage |
| --- | --- |
| G5A G11C | 0.214 |
| C3U G74C | 0.0712 |
| C3U G74U | 0.241 |
| C4A G28C | 0.0396 |
| C4U G11U | 0.219 |
| C4A G38C | 0 |
| C4A A78U | 0.0437 |
| C4U C14G | 0.369 |
| C4A C30U | 0.116 |
| C4A C30G | 0 |
| C3U C66U | 0.753 |
| C3U U12C | 0.107 |
| C4U C19A | 0.0678 |
| G5A C24G | 0 |
| C3U U72G | 0.453 |
| C3U U72C | 0.471 |
| C3U C75A | 0.101 |
| C3U C75G | 0.104 |
| C3U C75U | 0.197 |
| C3U U47G | 0.594 |
| C4A G73A | 0 |
| C4A G73C | 0.0426 |
| G5A C13A | 0.0369 |
| C3U C26U | 0.65 |

| Variant | self-cleavage |
| --- | --- |
| G5C A42G | 0 |
| C4U G10A | 0.35 |
| C4A G55U | 0.237 |
| G5C C36U | 0.0978 |
| C3U C21G | 0.0723 |
| C4A C63U | 0.344 |
| C3U U23A | 0.9 |
| C3U U23C | 0.776 |
| C3U U23G | 0.743 |
| C4U G6A | 0.532 |
| C4G C19U | 0.0779 |
| C4U G38C | 0.116 |
| C4U G76C | 0.984 |
| C4U G76U | 0.831 |
| G5A U37A | 0 |
| C4G A42U | 0.0875 |
| C3U C63A | 0.909 |
| C4U A51U | 0.85 |
| C4U A51G | 0.467 |
| C4A C19G | 0.0339 |
| C4G G38C | 0 |
| C4U U60A | 0.831 |
| C4U G54U | 0.789 |
